Tests used:
[1] = target: human DLL3 protein expressed on CHO-K1 recombinant cells (human DLL3 extracellular segment fused to EpCAM transmembrane and intracellular regions) (human) (UniProt Q9NYJ7); test: FACS, CHO-K1 hDLL3 cells, 0.032 nM antibody
[2] = target: human DLL4 protein (Acro, Cat. No. DL4-H5227) (human) (UniProt Q9NR61); test: ELISA, coated hDLL4; maximum over 0.1, 1, 10, 100 nM antibody
[3] = target: monkey DLL3 on CHO-K1-cyno DLL3 cells (cynomolgus monkey); test: FACS, CHO-K1-cyno DLL3 cells, 0.00128 nM antibody
Chain of monkey DLL3 on CHO-K1-cyno DLL3 cells (cynomolgus monkey) (chain, as listed by the source limits assumed): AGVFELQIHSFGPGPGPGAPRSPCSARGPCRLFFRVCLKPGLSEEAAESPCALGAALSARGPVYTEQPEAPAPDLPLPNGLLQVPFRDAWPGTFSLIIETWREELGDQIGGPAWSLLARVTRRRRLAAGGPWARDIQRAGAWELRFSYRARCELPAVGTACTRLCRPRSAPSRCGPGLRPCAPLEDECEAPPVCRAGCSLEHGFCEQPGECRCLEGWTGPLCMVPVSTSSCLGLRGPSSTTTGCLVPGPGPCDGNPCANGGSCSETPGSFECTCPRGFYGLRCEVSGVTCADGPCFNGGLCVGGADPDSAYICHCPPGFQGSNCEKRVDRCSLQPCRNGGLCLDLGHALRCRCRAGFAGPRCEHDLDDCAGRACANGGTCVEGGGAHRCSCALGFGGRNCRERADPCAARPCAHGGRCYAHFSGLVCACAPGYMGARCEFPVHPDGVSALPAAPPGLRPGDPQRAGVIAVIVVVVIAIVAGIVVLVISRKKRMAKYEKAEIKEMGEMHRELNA

[4] = target: monkey DLL3 on CHO-K1-cyno DLL3 cells (cynomolgus monkey); test: FACS, CHO-K1-cyno DLL3 cells, 0.16 nM antibody
[5] = target: DLL3 endogenously expressed on NCI-H82 cells (UniProt Q9NYJ7); test: FACS on NCI-H82 cells; antibody 100 nM
Chain of DLL3 endogenously expressed on NCI-H82 cells (Q9NYJ7 27-618): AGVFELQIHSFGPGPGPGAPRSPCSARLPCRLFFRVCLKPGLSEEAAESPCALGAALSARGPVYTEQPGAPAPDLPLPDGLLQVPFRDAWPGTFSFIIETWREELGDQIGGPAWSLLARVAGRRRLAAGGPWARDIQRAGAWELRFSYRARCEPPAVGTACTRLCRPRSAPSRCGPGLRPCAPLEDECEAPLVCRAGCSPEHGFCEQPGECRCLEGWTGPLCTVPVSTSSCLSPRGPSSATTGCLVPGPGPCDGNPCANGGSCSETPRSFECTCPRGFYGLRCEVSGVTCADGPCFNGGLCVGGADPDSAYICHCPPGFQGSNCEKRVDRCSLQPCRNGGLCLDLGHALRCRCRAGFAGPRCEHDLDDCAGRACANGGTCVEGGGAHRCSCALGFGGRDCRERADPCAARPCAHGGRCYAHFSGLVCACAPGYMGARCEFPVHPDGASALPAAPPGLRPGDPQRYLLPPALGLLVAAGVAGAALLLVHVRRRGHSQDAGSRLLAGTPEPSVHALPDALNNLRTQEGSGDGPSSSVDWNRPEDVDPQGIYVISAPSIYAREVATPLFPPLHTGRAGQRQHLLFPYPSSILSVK

[6] = target: human DLL3 protein expressed on CHO-K1 recombinant cells (human DLL3 extracellular segment fused to EpCAM transmembrane and intracellular regions) (human) (UniProt Q9NYJ7); test: FACS, CHO-K1 hDLL3 cells, 0.00128 nM antibody
[7] = target: DLL3 endogenously expressed on NCI-H82 cells (UniProt Q9NYJ7); test: FACS on NCI-H82 cells; antibody 20 nM
[8] = target: human DLL3 protein (extracellular segment, His tag) (human) (UniProt Q9NYJ7); test: SPR (Biacore 8K), antibody captured on Protein A chip, DLL3 antigen in solution, 1:1 Langmuir fit
Chain of human DLL3 protein (extracellular segment, His tag) (human) (Q9NYJ7 27-492): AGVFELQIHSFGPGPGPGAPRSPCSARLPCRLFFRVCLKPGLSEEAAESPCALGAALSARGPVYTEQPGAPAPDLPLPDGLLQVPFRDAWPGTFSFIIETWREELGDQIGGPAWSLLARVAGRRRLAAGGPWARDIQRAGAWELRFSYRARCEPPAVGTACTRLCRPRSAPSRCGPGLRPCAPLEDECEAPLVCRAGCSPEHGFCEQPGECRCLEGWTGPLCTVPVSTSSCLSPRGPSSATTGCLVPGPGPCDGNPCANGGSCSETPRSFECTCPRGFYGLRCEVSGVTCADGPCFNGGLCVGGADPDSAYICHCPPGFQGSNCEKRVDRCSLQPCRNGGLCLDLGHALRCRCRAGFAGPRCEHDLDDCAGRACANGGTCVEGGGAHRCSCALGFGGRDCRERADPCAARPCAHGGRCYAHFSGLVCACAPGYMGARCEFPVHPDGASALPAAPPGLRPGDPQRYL

[9] = target: human DLL3 protein expressed on CHO-K1 recombinant cells (human DLL3 extracellular segment fused to EpCAM transmembrane and intracellular regions) (human) (UniProt Q9NYJ7); test: FACS, CHO-K1 hDLL3 cells, 20 nM antibody
[10] = target: monkey DLL3 on CHO-K1-cyno DLL3 cells (cynomolgus monkey); test: FACS, CHO-K1-cyno DLL3 cells, 0.8 nM antibody
[11] = target: DLL3 endogenously expressed on NCI-H82 cells (UniProt Q9NYJ7); test: FACS on NCI-H82 cells; antibody 0.00128 nM
[12] = target: monkey DLL3 on CHO-K1-cyno DLL3 cells (cynomolgus monkey); test: FACS, CHO-K1-cyno DLL3 cells, 100 nM antibody
[13] = target: DLL3 endogenously expressed on NCI-H82 cells (UniProt Q9NYJ7); test: FACS on NCI-H82 cells; antibody 0.16 nM
[14] = target: monkey DLL3 on CHO-K1-cyno DLL3 cells (cynomolgus monkey); test: FACS, CHO-K1-cyno DLL3 cells, 20 nM antibody
[15] = target: DLL3 endogenously expressed on NCI-H82 cells (UniProt Q9NYJ7); test: FACS on NCI-H82 cells; antibody 0.032 nM
[16] = target: human DLL3 protein expressed on CHO-K1 recombinant cells (human DLL3 extracellular segment fused to EpCAM transmembrane and intracellular regions) (human) (UniProt Q9NYJ7); test: FACS, CHO-K1 hDLL3 cells, 0.8 nM antibody
[17] = target: human DLL3 protein expressed on CHO-K1 recombinant cells (human DLL3 extracellular segment fused to EpCAM transmembrane and intracellular regions) (human) (UniProt Q9NYJ7); test: FACS, CHO-K1 hDLL3 cells, 0.16 nM antibody
[18] = target: monkey DLL3 on CHO-K1-cyno DLL3 cells (cynomolgus monkey); test: FACS, CHO-K1-cyno DLL3 cells, 0.032 nM antibody
[19] = target: monkey DLL3 on CHO-K1-cyno DLL3 cells (cynomolgus monkey); test: FACS, CHO-K1-cyno DLL3 cells, 4 nM antibody
[20] = target: DLL3 endogenously expressed on NCI-H82 cells (UniProt Q9NYJ7); test: FACS on NCI-H82 cells; antibody 0.8 nM
[21] = target: human DLL3 protein expressed on CHO-K1 recombinant cells (human DLL3 extracellular segment fused to EpCAM transmembrane and intracellular regions) (human) (UniProt Q9NYJ7); test: FACS, CHO-K1 hDLL3 cells, 0.0064 nM antibody
[22] = target: DLL3 endogenously expressed on NCI-H82 cells (UniProt Q9NYJ7); test: FACS on NCI-H82 cells; antibody 0.0064 nM
[23] = target: DLL3 endogenously expressed on NCI-H82 cells (UniProt Q9NYJ7); test: FACS on NCI-H82 cells; antibody 4 nM
[24] = target: human DLL3 protein expressed on CHO-K1 recombinant cells (human DLL3 extracellular segment fused to EpCAM transmembrane and intracellular regions) (human) (UniProt Q9NYJ7); test: FACS, CHO-K1 hDLL3 cells, 100 nM antibody
[25] = target: human DLL1 protein (Acro, Cat. No. DL1-H52H8) (human) (UniProt O00548); test: ELISA, coated hDLL1; maximum over 0.1, 1, 10, 100 nM antibody
Chain of human DLL1 protein (Acro, Cat. No. DL1-H52H8) (human) (O00548 18-540 limits assumed): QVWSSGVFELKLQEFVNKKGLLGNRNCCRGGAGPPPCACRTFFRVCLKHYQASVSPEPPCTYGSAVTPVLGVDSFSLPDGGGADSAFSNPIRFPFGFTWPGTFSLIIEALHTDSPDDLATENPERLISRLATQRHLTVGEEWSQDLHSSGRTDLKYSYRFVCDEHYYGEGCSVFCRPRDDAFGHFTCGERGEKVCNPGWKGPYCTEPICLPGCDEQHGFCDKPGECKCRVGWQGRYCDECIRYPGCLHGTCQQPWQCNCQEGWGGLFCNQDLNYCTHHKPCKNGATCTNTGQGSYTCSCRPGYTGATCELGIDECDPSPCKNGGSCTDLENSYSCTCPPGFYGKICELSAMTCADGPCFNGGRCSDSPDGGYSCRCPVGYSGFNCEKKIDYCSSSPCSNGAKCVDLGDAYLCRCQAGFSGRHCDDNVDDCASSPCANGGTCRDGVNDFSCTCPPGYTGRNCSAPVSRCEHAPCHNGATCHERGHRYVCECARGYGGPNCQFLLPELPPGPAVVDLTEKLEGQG

[26] = target: human DLL3 protein expressed on CHO-K1 recombinant cells (human DLL3 extracellular segment fused to EpCAM transmembrane and intracellular regions) (human) (UniProt Q9NYJ7); test: FACS, CHO-K1 hDLL3 cells, 4 nM antibody
[27] = target: monkey DLL3 on CHO-K1-cyno DLL3 cells (cynomolgus monkey); test: FACS, CHO-K1-cyno DLL3 cells, 0.0064 nM antibody
[28] = target: human delta-like ligand 3 (DLL3) on SHP77 cells (human) (UniProt Q9NYJ7); test: FACS on SHP77 cells
Chain of human delta-like ligand 3 (DLL3) on SHP77 cells (human) (Q9NYJ7 27-618, stated change not applied): as the sequence (Q9NYJ7 27-618) above

Chain of human DLL3 protein expressed on CHO-K1 recombinant cells (human DLL3 extracellular segment fused to EpCAM transmembrane and intracellular regions) (human) (Q9NYJ7 other isoform, or with tags, fused parts or gaps limits assumed): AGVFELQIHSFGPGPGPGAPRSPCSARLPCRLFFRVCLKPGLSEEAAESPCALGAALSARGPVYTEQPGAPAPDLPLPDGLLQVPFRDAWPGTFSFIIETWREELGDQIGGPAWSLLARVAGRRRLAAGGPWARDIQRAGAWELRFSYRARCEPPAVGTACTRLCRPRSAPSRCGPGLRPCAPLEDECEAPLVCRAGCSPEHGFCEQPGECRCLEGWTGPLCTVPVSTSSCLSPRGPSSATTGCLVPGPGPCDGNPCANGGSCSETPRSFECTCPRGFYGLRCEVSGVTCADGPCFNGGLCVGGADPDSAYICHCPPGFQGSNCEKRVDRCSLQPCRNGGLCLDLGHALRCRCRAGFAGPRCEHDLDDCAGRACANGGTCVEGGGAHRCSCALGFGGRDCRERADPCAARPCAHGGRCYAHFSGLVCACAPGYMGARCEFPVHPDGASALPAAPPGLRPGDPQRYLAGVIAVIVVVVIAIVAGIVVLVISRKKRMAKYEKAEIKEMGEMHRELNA
Chain of human DLL4 protein (Acro, Cat. No. DL4-H5227) (human) (Q9NR61 27-524 limits assumed): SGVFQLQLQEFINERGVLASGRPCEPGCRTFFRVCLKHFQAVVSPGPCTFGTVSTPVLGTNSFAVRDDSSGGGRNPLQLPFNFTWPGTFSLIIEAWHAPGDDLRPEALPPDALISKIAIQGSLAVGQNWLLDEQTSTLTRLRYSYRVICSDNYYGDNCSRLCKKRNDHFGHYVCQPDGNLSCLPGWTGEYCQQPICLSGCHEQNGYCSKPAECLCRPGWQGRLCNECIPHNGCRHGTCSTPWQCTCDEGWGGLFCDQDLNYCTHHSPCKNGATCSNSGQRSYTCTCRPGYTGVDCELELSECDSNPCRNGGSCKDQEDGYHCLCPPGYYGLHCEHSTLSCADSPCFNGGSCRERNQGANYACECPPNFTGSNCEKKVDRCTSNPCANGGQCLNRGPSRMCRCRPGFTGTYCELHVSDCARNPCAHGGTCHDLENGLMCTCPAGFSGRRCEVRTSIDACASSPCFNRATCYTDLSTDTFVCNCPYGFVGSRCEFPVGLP

| Binder | MFI [1] | Emax of OD450 nm binding value [2] | MFI [3] | MFI [4] | MFI [5] | MFI [6] | MFI [7] | MFI [9] | MFI [10] | MFI [11] | MFI [12] | MFI [13] | MFI [14] | MFI [15] | MFI [16] | MFI [17] | MFI [18] | MFI [19] | MFI [20] | MFI [21] | other results |
| --- | --- | --- | --- | --- | --- | --- | --- | --- | --- | --- | --- | --- | --- | --- | --- | --- | --- | --- | --- | --- | --- |
| Hab008L1H2a-hFc (scFv, part only; not given: VL-VH linker and human IgG1 Fc, V domains shown, not shown: another chain or arm of the molecule; a dimerising Fc or GST; small tags and cut ends) VL: DIQMTQSPSSLSASVGDRVTITCKASQNVGTAVAWYQQKPGKSPKLLIFSASIRYTGVPSRFSGSGSGTDFTLTISSLQPEDFATYYCQQYSSSPYTFGGGTKVEIK VH: EVQLVQSGAEVKKPGASVKVSCKASGYTFTDYYMNWVRQAPGQRLEWMGIINPYNSGTSYNQKFRGRVTLTVDKSASTAYMELSSLRSEDTAVYYCSRYDYDYDVEGAMDYWGQGTTVTVSS | 316 MFI | 0.07 OD450 nm | 129 MFI | 1540 MFI | 617 | 109 MFI | 503 | 7660 MFI | 7010 MFI | 93 | 18600 MFI | 194 | 19500 MFI | 134 | 3700 MFI | 866 MFI | 511 MFI | 17600 MFI | 312 | 148 MFI | Kd [8]: 0.535 nM; koff [8]: 0.000324 s⁻¹; kon [8]: 606000 M⁻¹ s⁻¹; MFI [22]: 106; MFI [23]: 440; MFI [24]: 7690 MFI; Emax of OD450 nm binding value [25]: 0.06 OD450 nm; MFI [26]: 7440 MFI; MFI [27]: 231 MFI; MFI at 0.00128 nM [28]: 119 MFI; MFI at 0.0064 nM [28]: 121 MFI; MFI at 0.032 nM [28]: 126 MFI; MFI at 0.16 nM [28]: 144 MFI; MFI at 0.8 nM [28]: 187 MFI; MFI at 4 nM [28]: 297 MFI; MFI at 20 nM [28]: 532 MFI; MFI at 100 nM [28]: 758 MFI |
| Hab008L1H5-hFc (scFv, part only; not given: VL-VH linker and human IgG1 Fc, V domains shown, not shown: another chain or arm of the molecule; a dimerising Fc or GST; small tags and cut ends) VL: DIQMTQSPSSLSASVGDRVTITCKASQNVGTAVAWYQQKPGKSPKLLIFSASIRYTGVPSRFSGSGSGTDFTLTISSLQPEDFATYYCQQYSSSPYTFGGGTKVEIK VH: EVQLVQSGAEVKKPGASVKVSCKASGYTFTDYYMNWVRRAPGQRLEWMGIINPYNGGTSYNQKFRGRVTITVDKSASTAYMELSSLRSEDTAVYYCSRYDYDYDVEGAMDYWGQGTTVTVSS | 221 MFI | 0.69 OD450 nm | 116 MFI | 711 MFI | 1860 | 103 MFI | 1020 | 7750 MFI | 2940 MFI | 102 | 18400 MFI | 149 | 18400 MFI | 114 | 2170 MFI | 521 MFI | 286 MFI | 12100 MFI | 245 | 127 MFI | MFI [22]: 106; MFI [23]: 539; MFI [24]: 8400 MFI; Emax of OD450 nm binding value [25]: 0.24 OD450 nm; MFI [26]: 6530 MFI; MFI [27]: 159 MFI; MFI at 0.00128 nM [28]: 121 MFI; MFI at 0.0064 nM [28]: 120 MFI; MFI at 0.032 nM [28]: 123 MFI; MFI at 0.16 nM [28]: 139 MFI; MFI at 0.8 nM [28]: 186 MFI; MFI at 4 nM [28]: 333 MFI; MFI at 20 nM [28]: 793 MFI; MFI at 100 nM [28]: 1530 MFI |
| Hab008L3H2a-hFc (scFv, part only; not given: VL-VH linker and human IgG1 Fc, V domains shown, not shown: another chain or arm of the molecule; a dimerising Fc or GST; small tags and cut ends) VL: DIVMTQSPDSLAVSLGERATINCKASQNVGTAVAWYQQKPGQSPKLLIFSASIRYTGVPDRFSGSGSGTDFTLTISSLQAEDVAVYYCQQYSSSPYTFGGGTKVEIK VH: EVQLVQSGAEVKKPGASVKVSCKASGYTFTDYYMNWVRQAPGQRLEWMGIINPYNSGTSYNQKFRGRVTLTVDKSASTAYMELSSLRSEDTAVYYCSRYDYDYDVEGAMDYWGQGTTVTVSS | 240 MFI | 0.04 OD450 nm | 103 MFI | 928 MFI | 550 | 98 MFI | 448 | 8200 MFI | 3980 MFI | 85 | 21400 MFI | 97 | 21300 MFI | 90 | 2700 MFI | 715 MFI | 329 MFI | 14800 MFI | 135 | 126 MFI | Kd [8]: 0.529 nM; koff [8]: 0.000405 s⁻¹; kon [8]: 766000 M⁻¹ s⁻¹; MFI [22]: 89; MFI [23]: 307; MFI [24]: 7600 MFI; Emax of OD450 nm binding value [25]: 0.04 OD450 nm; MFI [26]: 7190 MFI; MFI [27]: 148 MFI; MFI at 0.00128 nM [28]: 117 MFI; MFI at 0.0064 nM [28]: 117 MFI; MFI at 0.032 nM [28]: 121 MFI; MFI at 0.16 nM [28]: 129 MFI; MFI at 0.8 nM [28]: 168 MFI; MFI at 4 nM [28]: 255 MFI; MFI at 20 nM [28]: 426 MFI; MFI at 100 nM [28]: 613 MFI |

Reference: EP4786492A1
